Data reported in article PMC11881899, “Structural insights into promoter-proximal pausing of RNA polymerase II at +1 nucleosome”.

Columns and labels:
[1] = biological target: RNA polymerase II (RNAPII);DSIF (SPT4/SPT5);NELF 3E mutant (Sus scrofa;human;human, UniProt A0A8D1DPV6;A0A4X1TVZ5;P19387;O15514;A0A4X1VTX4;P61218;P62487;P52434;P36954;P6287 …, ||K23E;K27E;K34E); assay: EMSA; 0.1 uM RNAPII, 0.4 uM DSIF, 0.4 uM NELF 3E; complex forms similar to wild type; EMSA: 20 mM Hepes-NaOH pH 7.5, 5 mM MgCl2, 5% glycerol (buffer J); final 75 mM NaCl, 50 mM KOAc, 0.33 uM Zn(OAc)2, 4 uM ZnCl2; 30 min at 4 C; native 3-8% Tris-acetate PAGE; conditions: protein: native;recombinant;recombinant; tags: none;N-His SPT4 (His tag TEV-cleaved); C-Strep SPT5;NELF-C C-His6; NELF-E N-FLAG; copies: 1;1;1;1;1;1;1;1;1;1;1;1;1;1;1;1;1;1; label: Alexa Fluor 647 on primer RNA; template DNA, nontemplate DNA and primer RNA
[2] = biological target: RNA polymerase II (RNAPII);DSIF (SPT4/SPT5) (Sus scrofa;human, UniProt A0A8D1DPV6;A0A4X1TVZ5;P19387;O15514;A0A4X1VTX4;P61218;P62487;P52434;P36954;P6287 …, |); assay: EMSA; 0.1 uM RNAPII, 0.4 uM DSIF; lower mobility than RNAPII-only EC; EMSA: 20 mM Hepes-NaOH pH 7.5, 5 mM MgCl2, 5% glycerol (buffer J); final 75 mM NaCl, 50 mM KOAc, 0.33 uM Zn(OAc)2, 4 uM ZnCl2; 30 min at 4 C; native 3-8% Tris-acetate PAGE; conditions: protein: native;recombinant; tags: none;N-His SPT4 (His tag TEV-cleaved); C-Strep SPT5; copies: 1;1;1;1;1;1;1;1;1;1;1;1;1;1; label: Alexa Fluor 647 on primer RNA; template DNA, nontemplate DNA and primer RNA
[3] = biological target: RNA polymerase II (RNAPII);DSIF (SPT4/SPT5);NELF wild type (NELF-A/B/C/E) (Sus scrofa;human;human, UniProt A0A8D1DPV6;A0A4X1TVZ5;P19387;O15514;A0A4X1VTX4;P61218;P62487;P52434;P36954;P6287 …, ||); assay: EMSA; 0.1 uM RNAPII, 0.4 uM DSIF, 0.4 uM NELF; complete shift; EMSA: 20 mM Hepes-NaOH pH 7.5, 5 mM MgCl2, 5% glycerol (buffer J); final 75 mM NaCl, 50 mM KOAc, 0.33 uM Zn(OAc)2, 4 uM ZnCl2; 30 min at 4 C; native 3-8% Tris-acetate PAGE; conditions: protein: native;recombinant;recombinant; tags: none;N-His SPT4 (His tag TEV-cleaved); C-Strep SPT5;NELF-C C-His6; NELF-E N-FLAG; copies: 1;1;1;1;1;1;1;1;1;1;1;1;1;1;1;1;1;1; label: Alexa Fluor 647 on primer RNA; template DNA, nontemplate DNA and primer RNA
[4] = biological target: RNA polymerase II (RNAPII) (Sus scrofa); assay: EMSA; 0.1 uM RNAPII; RNAPII-only EC; EMSA: 20 mM Hepes-NaOH pH 7.5, 5 mM MgCl2, 5% glycerol (buffer J); final 75 mM NaCl, 50 mM KOAc, 0.33 uM Zn(OAc)2, 4 uM ZnCl2; 30 min at 4 C; native 3-8% Tris-acetate PAGE; conditions: protein: native; tags: none; copies: 1;1;1;1;1;1;1;1;1;1;1;1; label: Alexa Fluor 647 on primer RNA; template DNA, nontemplate DNA and primer RNA

Measured: binding result

B1: DNA/RNA scaffold (EMSA) (mixed)
RNA: UUUUUAUCGAGAGGUAC
DNA 1: CCAAGATGTCAACTCTACCGATAAGCAGACGTACCTCTCGAT
DNA 2: CTGCTTATCGGTAGAGTTGACATCTTGG
binds: [1] | [2] | [3] | [4]
